We go through seven molecules from PMC7452893 (Nature Communications, 2020).

Conditions in all cases: both partners purified
Assay [1] deals with SARS-CoV-2 spike N-terminal domain (NTD) (SARS-CoV-2, Wuhan-Hu-1 (QHD43416), UniProt P0DTC2). The experiment in a line: ELISA; direct ELISA; plates coated with 2 μg/ml recombinant spike, S1, RBD or NTD; scFv-Fc detected with AP-conjugated anti-human IgG; specificity panel (Fig. 1c).
The target of assay [2] is T1, SARS-CoV-2 spike S1 subunit (SARS-CoV-2, Wuhan-Hu-1 (QHD43416), UniProt P0DTC2).
T1 construct: also called S1 domain
Nature of the assay: ELISA; direct ELISA; S1 as coating antigen (2 μg/ml), antibody diluted in series; apparent KD (Fig. 1d). A general note: ELISA stands for enzyme-linked immunosorbent assay.

Assay [3] addresses T1, SARS-CoV-2 spike S1 subunit. Nature of the assay: ELISA; direct ELISA; plates coated with 2 μg/ml recombinant spike, S1, RBD or NTD; scFv-Fc detected with AP-conjugated anti-human IgG; specificity panel (Fig. 1c).

B1: MD62 (antibody, V domains shown)
VH: EVQLVQSGGGLIQPGGSLRLSCAASGVTVSSNYMTWVRQAPGKGLEWVSLIYSGGSTYYADSVKGRFTISRDNSKNTLYLQMNSLRAEDTAVYYCARDLQYYGMDVWGQGTMVTVSS
VL: AIRMTQSPSSVSASVGDRVTITCRASQDIGSWLGWYQQKPGKAPKLLIYAASSLAGGVPSRFSGSGSGTDFTLTISSLQPEDFATYYCQQANSFPLTFGGGTKLEIK
notes: scFv-Fc format; also called MD62 scFv-Fc
With B1, the binding result in assay [1] is on record as “no binding”.

B2: MD17 (antibody, V domains shown)
VH: EVQLLESGGGLVQPGGSLRLSCSASGFTFSTYVMNWVRQAPGKGLEHVSGISSDGGITYYADSVKGRFTISRDNSKNTLYLQMSSLRVEDTAVYYCVKDQDSSSWYDAFDIWGQGTMVTVSS
VL: DIVMTQSPSSLSASVGDRVTITCRASQSISNYLNWYQQKLGKAPKLLTYAASRLQSGVPSRFSASGSGTEFTLTISSLQPEDFATYYCQQSYTTPLTFGGGTKLEIK
notes: scFv-Fc format; also called MD17 scFv-Fc
For the molecule B2, the binding result in assay [1] is on record as “no binding”.

B3: MD29 (antibody, V domains shown)
VH: QMQLVQSGGGLVQPGGSLRLSCSASGFTFSTYVMNWVRQAPGKGPEHVSGISSDGGITYYADSVKGRFTISRDNSKNTLYLQMSSLRVEDTAVYYCVKDQDSSSWYDAFDIWGQGTMVTVSS
VL: NIRLTQSPSSLSASVGDRVTITCRATQSISSYLNWYQQKPGKAPNLLIYAASSLQSGVPSRFSGSGSGTDFTLTISSLQPEDFATYYCHQTYTSPYTFGQGTKLEIK
notes: scFv-Fc format; also called MD29 scFv-Fc
As to B3, the binding result in assay [1] was “no binding”.

B4: MD63 (antibody, V domains shown)
VH: QVTLKESGGGVVQPGRSLRLSCAASGFTFSSYAMHWVRQAPGKGLEHVSAISSDGGITYFADSVKGRFTISRDNSRNTLFLQMSSLRVEDTAVYYCVKDQDSNSWYDAFDIWGRGTMVTVSS
VL: not shown
notes: scFv-Fc format; also called MD63 scFv-Fc
On to B4, for which the Kd in assay [2] worked out at 15.6 nM. Also, the binding result in assay [1] is listed as “no binding”.

B5: MD47 (antibody, V domains shown)
V domain 1: QMQLVQSGGGLVQPGGSLRLSCAASGFTFSSYAMSWVRQAPGKGLEWVSAISSGGSTYYADSVKGRFTISRDNSKNTLYLQMNSLRAEDTAVYYCAKDLVTAPSYEAFDIWGQGTMITVSS
V domain 2: NFMLTQPPSVSVAPGKTARITCGGNNIGSKSVHWYQQKPGQAPVLVIYYDSDRPSGIPERFSGSNSGNTATLTISRVEAGDEADYYCQVWDSSSHHHVVFGGGTKGTVL
notes: scFv-Fc format; also called MD47 scFv-Fc
On to B5, for which the values for the binding result in assay [3] and in assay [1] were “binds” and “no binding”, respectively.

B6: MD45 (antibody, V domains shown)
VH: EVQLVQSGGGLVQPGGSLRLSCAASGFTVSSNYMTWVRQAPGKGLEWVSVIYSGGSTFYADSVKGRFTISRHNSKNTLYLQMNSLRAEDTAVYYCARDLSVRGGMDVWGQGTMVTVSS
VL: EIVLTQSPGTLSLSPGERATLSCRASQSVNSSYLAWYQQKPGQAPRLLIYGASNRATGIPDRFSGSGSGTDFTLTISRLEPEDFAVYYCQQYGVSPEIIFGQGTRLEIK
notes: scFv-Fc format; also called MD45 scFv-Fc
On to B6, for which the Kd in assay [2] was determined as 12.7 nM. Further, in assay [1], the binding result is on record as “no binding”.

B7: MD67 (antibody, V domains shown)
VH: EVQLVESGGGLVQPGGSLRLSCAASGFTVSSNYMTWVRQAPGKGLEWVSVIYSGGSTFYADSVKGRFTISRHNSKNTLYLQMNSLRAEDTAVYYCARDLSVRGGMDVWGQGTTVTVSS
VL: not shown
notes: scFv-Fc format; also called MD67 scFv-Fc
Take B7: in assay [1], the binding result is “no binding”.
